# Legend:
# [1] = system: eNOS protein expression; assay: Immunoblot of eNOS in angiostatin-treated hypoxic HMVEC-C; type: cell-based, Human; details: 48 hours hypoxic conditions, peptides tested with angiostatin
# Method: (§1) Cell culture and hypoxia. Cardiac-derived Human microvascular endothelial cells from (HMVEC-C) were obtained from Lonza (Walkersville, Md., USA) and cultured in a humidified atmosphere at 37° C. and 5% CO2 in EGM-2 MV. Depending on the donor, the primary endothelial cells were serum starved for 4-16 h in EBM-2 and 0.5% FBS prior to exposure to hypoxic conditions. The time of serum starvation prior to treatment was titrated to induce approximately 40% apoptosis following treatment under normoxic conditions. Hypoxia was induced by exposing endothelial cells for 48 h under serum-starved conditions in a Billups-Rothenberg chamber continuously gassed with 95% N2-5% CO2.
# (§2) Immunoblots. HMVEC-L lysates were subjected to 8% sodium dodecyl sulfate-polyacrylamide gel electrophoresis Blots were blocked overnight in TTBS and 5% non-fat milk and then cut at the 50 KDa across the membrane. Subsequently the >50 KDa upper membrane was incubated with either rabbit anti-human MMP-14 (MT1-MMP) (1 μg/ml) (Millipore) (Etobicoke, ONT, Canada), or mouse anti-eNOS (1:1000) (Abcam) (Toronto, ONT, Canada) for 2 h. Anti-mouse (1:10,000), or anti-rabbit (1:5000) horseradish peroxidase-conjugated antibodies were used as the secondary antibodies (Sigma, Oakville, ON, Canada). […] Blot bands were quantified using ImageJ software (Bio-Rad, Mississauga, ON, Canada) and expressed as arbitrary units of density per β-actin.
# [2] = system: MT1-MMP protein expression; assay: Immunoblot of MT1-MMP (MMP-14) in angiostatin-treated hypoxic HMVEC-C; type: cell-based, Human; details: 48 hours hypoxic conditions, peptides tested with angiostatin
# Method: as §1, §2
# [3] = system: MMP-2 protein expression; assay: Gelatin zymography of MMP-2 in HMVEC-C lysates; type: cell-based, Human; details: 48 hours hypoxic conditions, peptides tested with angiostatin
# Method: as §1
# Gelatin zymography. Gelatin zymography was used to assess MMP-2 levels within HMVEC-C lysates. Zymography was performed using 8% SDS-PAGE with copolymerized gelatin (2 mg/ml). After electrophoresis, gels were washed 3× for 20 min in 2% Triton X-100. Next, gels were washed 2· for 20 min in developing buffer (50 mM Tris-HCl pH 7.6, 150 mM NaCl, 5 mM CaCl2), and 0.05% NaN3) and then incubated in developing buffer at 37° C. overnight. Gels were stained with 0.05% Coomassie Brilliant Blue and then destained in a 4% ethanol and 8% acetic acid solution. Gelatinolytic activity was detected as transparent bands against a blue background of Coomassie-stained gelatin. […]
# [4] = target: T1, angiostatin kringles 1-4 (Homo sapiens, UniProt P00747); assay: Immunoprecipitation of angiostatin K1-4 after incubation with trypsinized ATP synthase subunit α, mass spectrometry of bound peptides; type: binding; details: for abundance based on peptide spectral matches (PSMs): angiostatin-bound peptides after immunoprecipitation; for binding to angiostatin (immunoprecipitation, mass spectrometry): peptides from trypsin digest of recombinant F1F0 ATP synthase subunit α incubated with purified angiostatin kringles 1-4
# T1 construct: the resulting peptides incubated with purified angiostatin kringles 1-4
# T1 sequence (P00747 79-466 limits assumed): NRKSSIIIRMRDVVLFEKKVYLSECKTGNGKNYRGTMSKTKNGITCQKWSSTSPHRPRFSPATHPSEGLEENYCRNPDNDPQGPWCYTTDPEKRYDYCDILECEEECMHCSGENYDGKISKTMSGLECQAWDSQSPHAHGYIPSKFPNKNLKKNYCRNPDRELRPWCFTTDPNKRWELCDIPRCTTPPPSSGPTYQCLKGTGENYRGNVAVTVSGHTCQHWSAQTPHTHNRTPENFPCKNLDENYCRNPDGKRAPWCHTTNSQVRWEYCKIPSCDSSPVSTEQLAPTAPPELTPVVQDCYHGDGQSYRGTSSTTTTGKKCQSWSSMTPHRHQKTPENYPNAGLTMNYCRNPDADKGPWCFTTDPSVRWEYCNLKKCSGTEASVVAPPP
# Method: Trypsin digestion of ATP synthase subunit α. Recombinant F1F0 ATP synthase subunit α was digested with trypsin, and following heat-inactivation of trypsin the resulting peptides incubated with purified angiostatin kringles 1-4. Subsequently, the angiostatin was immunoprecipitated and submitted for mass spectroscopy analysis to identify any potential bound peptides of subunit α.
# [5] = system: fibrinolysis; assay: In vitro fibrinolysis assay in citrated human plasma; type: biochemical; details: recalcified human plasma, thrombin + tPA 1 μg/ml, 2 hours 37° C.; combined peptides each 1 μM, aprotinin 10 μM
# Method: Fibrinolysis Assays. Citrated human plasma (platelet-free) was recalcified to a final free Ca^2+ concentration of 2.5 mM. After recalcification, plasma was incubated with a peptide 1, 2, 3, or with combined a peptides 1-3 (each 1 μM), or with negative control 8 peptide (3 μM) or with aprotinin (10 μM) as positive control for inhibiting fibrinolysis. To initiate clotting ice-cold thrombin (0.3 U/ml) was added to each well, while to initiate fibrinolysis human tissue plasminogen activator (1 μg/ml; Sigma) was added. After 2 hours incubation at 37° C. the absorbance at 405 nm was measured using a Bio-Rad iMark microplate reader and the results were expressed as percent fibrinolysis.
# [6] = system: HMVEC-C; assay: Endothelial cell migration assay under hypoxia; type: cell-based, Human; details: hypoxia 48 hours, VEGF 10 ng/ml chemoattractant, angiostatin 600 nM; combined peptides 1 μM each
# Method: Migration assays. 24-well plate inserts with […] pores (Falcon Corning, Tewksbury, Mass., USA) were coated with 1 mg/ml gelatin and incubated at 37° C. for 2 hours to allow gelatin to solidify. Excess gelatin was aspirated and inserts were left to dry overnight under UV light, then gently washed once with 100μl of PBS. Once approximately 80% confluent, HMVEC-C were serum starved for 8 hours in 0.5% FBS in EBM-2. Cells were trypsinized and seeded into the top chamber of the gelatin-coated inserts at a concentration of 25 000 cells/insert. Recombinant VEGF (10 ng/ml) in 0.5% FBS in EBM-2 was added to the corresponding bottom chambers to serve as a chemoattractant. HMVEC-C were treated with PBS control, angiostatin (600 nM), angiostatin (600 nM)+a peptide 1 through 3 (3 μM), angiostatin (600 nM)+negative-control 6 peptide (3 μM), and angiostatin (600 nM)+combined a peptide 1-3 (1 μM each). The system was incubated in hypoxia (95% N2, 5% CO2) for 48 hours. After incubation, the top layer of each insert was scraped gently using a Q-tip to remove the non-migrated cells. Migrated cells at the bottom of the insert were fixed in 4% formaldehyde in PBS for five minutes, followed by staining using Diffquik stain (Siemens Healthcare Diagnostics Inc., Newark, Del., USA). […] Cells were counted using ImageJ software, and expressed as migration percent of PBS control.
Molecule,eNOS levels (immunoblot) [1],MT1-MMP levels (immunoblot) [2],MMP-2 levels (gelatin zymography) [3],abundance based on peptide spectral matches (PSMs) [4],"binding to angiostatin (immunoprecipitation, mass spectrometry) [4]",further results
"VPTLQVLRPGLVV [delta peptide, reference compound]",failed to significantly increase,failed to significantly increase,failed to significantly increase,,,
TGTAEMSSILEER [Alpha peptide 1],,,,high abundance,bound to angiostatin,
TSIAIDTIINQK [Alpha peptide 2],,,,medium abundance,bound to angiostatin,
aprotinin,,,,,,inhibition of fibrinolysis [5]: fibrinolysis inhibitor
AVDSLVPIGR [Alpha peptide 3],,,,medium abundance,bound to angiostatin,
angiostatin (protein) YLSECKTGNGKNYRGTMSKTKNGITCQKWSSTSPHRPRFSPATHPSEGLEENYCRNPDNDPQGPWCYTTDPEKRYDYCDILECEEECMHCSGENYDGKISKTMSGLECQAWDSQSPHAHGYIPSKFPNKNLKKNYCRNPDRELRPWCFTTDPNKRWELCDIPRCTTPPPSSGPTYQCLKGTGENYRGNVAVTVSGHTCQHWSAQTPHTHNRTPENFPCKNLDENYCRNPDGKRAPWCHTTNSQVRWEYCKIPSCDSSPVSTEQLAPTAPPELTPVVQDCYHGDGQSYRGTSSTTTTGKKCQSWSSMTPHRHQKTPENYPNAGLTMNYCRNPDADKGPWCFTTDPSVRWEYCNLKKCSGTEA,significant reduction,significant reduction,significant reduction,,,HMVEC-C migration [6]: decreased
